Reference: paper PMC2935290

Target: HLA-DPB1*0101 (human (endogenous in VAVY))
Experiment: radioligand binding

other: 3.1
Substance: … A7W (peptide)
